One block for each molecule: values may come before it.
B3: SYCE2_(57–165), tag cleaved (domain or fragment, human, UniProt Q6PIF2 57-165, looked up)
chain: GLYFSSLDSSIDILQKRAQELIENINKSRQKDHALMTNFRNSLKTKVSDLTEKLEERIYQIYNDHNKIIQEKLQEFTQKMAKISHLETELKQVCHSVETVYKDLCLQPE
notes: also called central conserved region of SYCE2; source: E. coli Rosetta 2 (DE3), co-expressed with TEX12 constructs, co-purified (Ni–NTA, amylose, TEV cleavage, Resource Q); not shown: MBP, N-terminal, cleaved

Assays:
[1] = molecular target: T1, MBP–SYCE2 (1–218) (human, UniProt Q6PIF2 1-218); experiment: SEC-MALS; 100 µl at 1–5 mg ml^−1 on Superdex 200 10/300 GL; 20 mM Tris pH 8.0, 150 mM KCl, 2 mM DTT; purified complexes or purified fusion proteins
T1 construct: Tetramer by SEC–MALS; also called full-length SYCE2; source: E. coli Rosetta 2 (DE3); co-expressed (pRSFDuet-1), in clarified lysate for the pull-down; individually expressed, purified on amylose resin for SEC–MALS; not shown: MBP, N-terminal, kept
T1 sequence (looked up): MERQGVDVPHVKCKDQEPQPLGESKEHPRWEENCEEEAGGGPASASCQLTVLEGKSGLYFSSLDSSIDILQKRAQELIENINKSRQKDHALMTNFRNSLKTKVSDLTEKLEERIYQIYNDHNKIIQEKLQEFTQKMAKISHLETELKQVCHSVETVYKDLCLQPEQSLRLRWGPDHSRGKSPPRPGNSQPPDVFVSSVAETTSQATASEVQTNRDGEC

[2] = molecular target: His–SYCE2 (1–218) (human) (UniProt Q6PIF2); experiment: as above
[3] = molecular target: B3; experiment: SDS–PAGE band densitometry of the purified complex; Coomassie-stained SDS–PAGE of the co-purified, tag-cleaved complex; densitometry with IMAGEJ; conditions: both partners purified
[4] = molecular target: the molecule itself; experiment: SEC-MALS; 100 µl at 1–5 mg ml^−1 on Superdex 200 10/300 GL; 20 mM Tris pH 8.0, 150 mM KCl, 2 mM DTT; purified complexes or purified fusion proteins
[5] = molecular target: the molecule itself; experiment: AUC; sedimentation velocity of co-purified, tag-cleaved complexes; SYCE2_(57–165)–TEX12 at 57 µM, SYCE2_(57–165)–TEX12_(49–123) at 289 µM; 20 mM Tris pH 8.0, 145 mM KCl, 2 mM DTT; 30 000 r.p.m., 20°C; c(S) fit
[6] = molecular target: T2, MBP–SYCE2_(57–88) (human, UniProt Q6PIF2 57-88); experiment: pull-down; amylose pull-down after co-expression in bacteria of MBP-fusion SYCE2 constructs (bait) with His-tagged TEX12 or SYCE2 constructs; lysis in 20 mM Tris pH 8.0, 500 mM KCl, 2 mM DTT; 1 h at 4°C; maltose elution; Coomassie-stained SDS–PAGE; conditions: partners not purified
T2 construct: human SYCE2, residues 57–88 (α1 region); Monomer by SEC–MALS; also called α1 region of SYCE2; source: E. coli Rosetta 2 (DE3); co-expressed (pRSFDuet-1), in clarified lysate for the pull-down; individually expressed, purified on amylose resin for SEC–MALS; not shown: MBP, N-terminal, kept
T2 chain (looked up): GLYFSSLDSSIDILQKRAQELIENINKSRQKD

[7] = molecular target: T1, MBP–SYCE2 (1–218); experiment: as above; conditions: partners not purified

- stoichiometry N [1]: 4
Molecule: MBP–SYCE2 (1–218) (from UniProt Q6PIF2 1-218) (natural protein)

- stoichiometry N [2]: 4
Molecule: His–SYCE2 (1–218) (from UniProt Q6PIF2 1-218) (natural protein)

- stoichiometry N [3]: 1
B1: TEX12_(49–123), tag cleaved (domain or fragment, human, UniProt Q9BXU0 49-123, looked up)
chain: KDEALEKDLNDVSKEINLMLSTYAKLLSERAAVDASYIDEIDELFKEANAIENFLIQKREFLRQRFTVIANTLHR
notes: not shown: His-tag, N-terminal, cleaved

B2: MBP-TEX12_(49–123) (domain or fragment, human, UniProt Q9BXU0 49-123, looked up)
chain: KDEALEKDLNDVSKEINLMLSTYAKLLSERAAVDASYIDEIDELFKEANAIENFLIQKREFLRQRFTVIANTLHR
notes: Dimer by SEC–MALS; source: E. coli Rosetta 2 (DE3), individually expressed, purified on amylose resin; not shown: MBP, N-terminal, kept
- stoichiometry N [4]: 2

Molecule: B3
- binding result [5]: binds

- stoichiometry N [3]: 1
B4: TEX12 (1–123), tag cleaved (natural protein, human, UniProt Q9BXU0 1-123, looked up)
chain: MMANHLVKPDNRNCKRPRELESPVPDSPQLSSLGKSDSSFSEISGLFYKDEALEKDLNDVSKEINLMLSTYAKLLSERAAVDASYIDEIDELFKEANAIENFLIQKREFLRQRFTVIANTLHR
notes: as for B1

B5: MBP–TEX12_(1–123) (natural protein, human, UniProt Q9BXU0 1-123, looked up)
chain: MMANHLVKPDNRNCKRPRELESPVPDSPQLSSLGKSDSSFSEISGLFYKDEALEKDLNDVSKEINLMLSTYAKLLSERAAVDASYIDEIDELFKEANAIENFLIQKREFLRQRFTVIANTLHR
notes: Homodimer by SEC–MALS; source: E. coli Rosetta 2 (DE3), individually expressed, purified on amylose resin; not shown: MBP, N-terminal, kept
- stoichiometry N [4]: 2

- integrated intensity of the TEX12 band relative to 57–165 [6]: 96%
- integrated intensity of the TEX12 band relative to 57–165 [7]: 62%
B6: His–TEX12 (1–123) (natural protein, human, UniProt Q9BXU0 1-123, looked up)
chain: MMANHLVKPDNRNCKRPRELESPVPDSPQLSSLGKSDSSFSEISGLFYKDEALEKDLNDVSKEINLMLSTYAKLLSERAAVDASYIDEIDELFKEANAIENFLIQKREFLRQRFTVIANTLHR
notes: source: E. coli Rosetta 2 (DE3), co-expressed (pRSFDuet-1), in clarified lysate; not shown: His-tag, N-terminal, kept

B7: MBP-TEX12_(24–123) (domain or fragment, human, UniProt Q9BXU0 24-123, looked up)
chain: VPDSPQLSSLGKSDSSFSEISGLFYKDEALEKDLNDVSKEINLMLSTYAKLLSERAAVDASYIDEIDELFKEANAIENFLIQKREFLRQRFTVIANTLHR
notes: as for B2
- stoichiometry N [4]: 2

Source: article PMC3411106, “Structural analysis of the human SYCE2–TEX12 complex provides molecular insights into synaptonemal complex assembly” (Open Biology, 2012)
